For one series, the target named is T1, PA4781HD-GYP (Pseudomonas aeruginosa, UniProt Q9HV27).
T1 construct: gene PA4781; HD-GYP domain, first 111 residues (REC domain) removed, His-tag (pET28b), E. coli BL21(DE3); mainly monomer
The experiment in a line: RP-HPLC of nucleotides, turnover. As to conditions: REC domain removed, not phosphorylated; pH 8, 30 °C, Mg2+ and/or Mn2+. It counts as biochemical.

The test system of series [1] is Nc1nc2c(ncn2[C@@H]2O[C@@H]3CO[P@](=O)(O)O[C@H]4[C@@H](O)[C@H](n5cnc6c(=O)[nH]c(N)nc65)O[C@@H]4CO[P@](=O)(O)O[C@H]3[C@H]2O)c(=O)[nH]1. Briefly: purified protein.
The test system of series [2] is Nc1nc2c(ncn2[C@@H]2O[C@H](COP(=O)(O)O[C@H]3[C@@H](O)[C@H](n4cnc5c(=O)[nH]c(N)nc54)O[C@@H]3COP(=O)(O)O)[C@@H](O)[C@H]2O)c(=O)[nH]1. Briefly: purified protein. As to conditions: Mg2+ and/or Mn2+.
[3] abbreviates: 10 mM MgCl2 and 2.5 mM MnCl2, 50 mM Tris-HCl pH 8, 150 mM NaCl, 30 °C, 0.64 µM enzyme.
[4] abbreviates: 50 mM Tris-HCl pH 8, 150 mM NaCl, 30 °C, may be apparent value (about 30% c-di-GMP still bound to protein).
[5] abbreviates: protein phosphorylated with acetyl phosphate (extent unknown), pH 8, 30 °C.

T1 sequence (Q9HV27 112-393): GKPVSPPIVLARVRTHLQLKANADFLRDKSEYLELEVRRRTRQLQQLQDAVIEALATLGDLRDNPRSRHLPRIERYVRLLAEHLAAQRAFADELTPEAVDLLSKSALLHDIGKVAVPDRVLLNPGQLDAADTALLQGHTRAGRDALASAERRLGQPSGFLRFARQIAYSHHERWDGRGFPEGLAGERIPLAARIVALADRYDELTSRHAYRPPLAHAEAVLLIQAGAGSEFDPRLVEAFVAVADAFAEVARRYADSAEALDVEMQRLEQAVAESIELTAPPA

Turning to `Nc1nc2c(ncn2[C@@H]2O[C@@H]3COP(=O)(O)O[C@H]4[C@@H](O)[C@H](n5cnc6c(=O)[nH]c(N)nc65)O[C@@H]4COP(=O)(O)O[C@H]3[C@H]2O)c(=O)[nH]1` [c-di-GMP], the “RP-HPLC of nucleotides, turnover” value on PA4781HD-GYP is “displays little, but significant PDE activity”.

Broadly, the Km is the substrate concentration at which the rate is half of its maximum. In general, kcat refers to the maximal rate divided by the concentration of active sites. Turning to PA4108 (Pseudomonas aeruginosa PAO1), in series [1] (setting [3]), the Michaelis-Menten constant (Km) amounted to 20 ± 5 µM and the kcat is 0.00015 ± 1e-05 s⁻¹. Besides, in series [2] (setting [4]), the Michaelis constant (Km) is 30 ± 9 µM and the catalytic constant (kcat) is 1.2±0.1x10^-3 s^-1.

As to PA4781 (Pseudomonas aeruginosa PAO1), the Michaelis-Menten constant (Km) in series [1] (protein phosphorylated with acetyl phosphate (extent unknown), 10 mM MgCl2, pH 8, 30 °C) amounted to 119 ± 30 µM. Besides, in series [2] (setting [5]), the Km came out at 27 ± 8 µM and the turnover number (kcat) is listed as 7.7±1x10^-4 s^-1.

The values above are taken from publication PMC3774798 (PLoS ONE, 2013).
